Our source for the IC50 values is the Immune Epitope Database (IEDB).

Holding throughout (experiment): IEDB peptide-MHC binding, purified MHC/competitive/radioactivity; ≥ and ≤ were set here for values at or beyond the usual limits of such assays
Common to all, as to conditions: source organism: Bordetella pertussis

Test [1] concerns the target HLA-A*02:01.
Test [2] has as its target HLA-B*35:01.
For test [3], the target named is HLA-B*53:01.
Test [4] deals with HLA-B*57:01.
The target in test [5] is HLA-B*44:03.
Test [6] concerns the target HLA-B*07:02.

pIC50: −log10 of the molar value. Bounds are passed on as bounds.

As to ALANDGTIV, the negative logarithm of the IC50 (pIC50) in test [1] is at most 4.11.
Consider DATFQTYAL, for which the values for the pIC50 in test [2] and in test [3] were 4.77 and 4.18, respectively.
On to DHLTGRSCQ, for which, in test [4], the negative logarithm of the IC50 (pIC50) is at most 4.15.
Turning to EVAGALELS, the negative-log IC50 (pIC50) in test [2] is 4.16.
In the case of FEGKPALEL, the negative-log IC50 (pIC50) in test [5] is at most 4.15.
For the sequence GAFDLKTTF, the pIC50 in test [4] was 4.29.
Regarding GKSLKKKNQ, the negative logarithm of the IC50 (pIC50) in test [2] is 4.16.
For the sequence KPLADIAVV, the pIC50 in test [6] was 5.26.
For LALQAGDAL, the pIC50 in test [2] is 4.50.
As to MAAGHDATL, in test [3], the negative-log IC50 (pIC50) is 5.21.
Regarding NITNKRAAL, the negative logarithm of the IC50 (pIC50) in test [6] was 4.64.
For the sequence PKPKPKPKA, the pIC50 in test [2] was 4.16.
In the case of RSRVRALSW, the negative logarithm of the IC50 (pIC50) in test [4] is 7.23.
On the same count and under the same terms, the result for VSSATKAKG reads at most 4.15.
